B1: CE115HA000/GLS3000 Q27D (antibody, IgG1, name in Kabat numbering, V domains shown)
VH: QVQLVESGGGVVQPGRSLRLSCAASGFTFSNAWMHWVRQAPGKGLEWVAQIKAKSNNYATYYAESVKGRFTISRDDSKNSLYLQMNSLKTEDTAVYYCRYVHYGAYYGVDAWGQGTTVTVSS
VL: DIVMTQSPLSLPVTPGEPASISCRSSDSLVHSNRNTYLHWYQQKPGQAPRLLIYKVSNRFSGVPDRFSGSGSGTDFTLKISRVEAEDVGVYYCGQGTQVPYTFGQGTKLEIK
notes: one-arm IgG1
B2: CE115HA000/GLS3000 Q90E (antibody, IgG1, name in Kabat numbering, V domains shown)
VH: QVQLVESGGGVVQPGRSLRLSCAASGFTFSNAWMHWVRQAPGKGLEWVAQIKAKSNNYATYYAESVKGRFTISRDDSKNSLYLQMNSLKTEDTAVYYCRYVHYGAYYGVDAWGQGTTVTVSS
VL: DIVMTQSPLSLPVTPGEPASISCRSSQSLVHSNRNTYLHWYQQKPGQAPRLLIYKVSNRFSGVPDRFSGSGSGTDFTLKISRVEAEDVGVYYCGEGTQVPYTFGQGTKLEIK
notes: one-arm IgG1
B3: CE115HA000/GLS3000 Q90D (antibody, IgG1, name in Kabat numbering, V domains shown)
VH: QVQLVESGGGVVQPGRSLRLSCAASGFTFSNAWMHWVRQAPGKGLEWVAQIKAKSNNYATYYAESVKGRFTISRDDSKNSLYLQMNSLKTEDTAVYYCRYVHYGAYYGVDAWGQGTTVTVSS
VL: DIVMTQSPLSLPVTPGEPASISCRSSQSLVHSNRNTYLHWYQQKPGQAPRLLIYKVSNRFSGVPDRFSGSGSGTDFTLKISRVEAEDVGVYYCGDGTQVPYTFGQGTKLEIK
notes: one-arm IgG1
B4: CE115HA000/GLS3000 Q27P (antibody, IgG1, name in Kabat numbering, V domains shown)
VH: QVQLVESGGGVVQPGRSLRLSCAASGFTFSNAWMHWVRQAPGKGLEWVAQIKAKSNNYATYYAESVKGRFTISRDDSKNSLYLQMNSLKTEDTAVYYCRYVHYGAYYGVDAWGQGTTVTVSS
VL: DIVMTQSPLSLPVTPGEPASISCRSSPSLVHSNRNTYLHWYQQKPGQAPRLLIYKVSNRFSGVPDRFSGSGSGTDFTLKISRVEAEDVGVYYCGQGTQVPYTFGQGTKLEIK
notes: one-arm IgG1
B5: CE115HA000/GLS3000 Q27E (antibody, IgG1, name in Kabat numbering, V domains shown)
VH: QVQLVESGGGVVQPGRSLRLSCAASGFTFSNAWMHWVRQAPGKGLEWVAQIKAKSNNYATYYAESVKGRFTISRDDSKNSLYLQMNSLKTEDTAVYYCRYVHYGAYYGVDAWGQGTTVTVSS
VL: DIVMTQSPLSLPVTPGEPASISCRSSESLVHSNRNTYLHWYQQKPGQAPRLLIYKVSNRFSGVPDRFSGSGSGTDFTLKISRVEAEDVGVYYCGQGTQVPYTFGQGTKLEIK
notes: one-arm IgG1
B6: CE115HA000/GLS3000 Q27L (antibody, IgG1, name in Kabat numbering, V domains shown)
VH: QVQLVESGGGVVQPGRSLRLSCAASGFTFSNAWMHWVRQAPGKGLEWVAQIKAKSNNYATYYAESVKGRFTISRDDSKNSLYLQMNSLKTEDTAVYYCRYVHYGAYYGVDAWGQGTTVTVSS
VL: DIVMTQSPLSLPVTPGEPASISCRSSLSLVHSNRNTYLHWYQQKPGQAPRLLIYKVSNRFSGVPDRFSGSGSGTDFTLKISRVEAEDVGVYYCGQGTQVPYTFGQGTKLEIK
notes: one-arm IgG1
B7: CE115HA000/GLS3000 Q27R (antibody, IgG1, name in Kabat numbering, V domains shown)
VH: QVQLVESGGGVVQPGRSLRLSCAASGFTFSNAWMHWVRQAPGKGLEWVAQIKAKSNNYATYYAESVKGRFTISRDDSKNSLYLQMNSLKTEDTAVYYCRYVHYGAYYGVDAWGQGTTVTVSS
VL: DIVMTQSPLSLPVTPGEPASISCRSSRSLVHSNRNTYLHWYQQKPGQAPRLLIYKVSNRFSGVPDRFSGSGSGTDFTLKISRVEAEDVGVYYCGQGTQVPYTFGQGTKLEIK
notes: one-arm IgG1
B8: CE115HA000/GLS3000 Q90A (antibody, IgG1, name in Kabat numbering, V domains shown)
VH: QVQLVESGGGVVQPGRSLRLSCAASGFTFSNAWMHWVRQAPGKGLEWVAQIKAKSNNYATYYAESVKGRFTISRDDSKNSLYLQMNSLKTEDTAVYYCRYVHYGAYYGVDAWGQGTTVTVSS
VL: DIVMTQSPLSLPVTPGEPASISCRSSQSLVHSNRNTYLHWYQQKPGQAPRLLIYKVSNRFSGVPDRFSGSGSGTDFTLKISRVEAEDVGVYYCGAGTQVPYTFGQGTKLEIK
notes: one-arm IgG1

Each binder was assayed against T1, CD3 epsilon homodimer protein (UniProt P07766 23-126) (assay: SPR, antibody over immobilised CD3e homodimer;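 also: SPR at 25 °C with CD3 epsilon homodimer amine-coupled to a CM4 sensor chip and antibody flowed over as analyte in HBS-EP+ running buffer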).
T1 construct: also called CD3 (CD3 epsilon)
T1 sequence (P07766 23-126): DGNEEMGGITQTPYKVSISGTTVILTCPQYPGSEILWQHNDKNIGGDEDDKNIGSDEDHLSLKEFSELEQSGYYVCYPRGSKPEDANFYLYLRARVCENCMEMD

Compared with B1, B2 is higher in “KD ratio to GLS3000” value: 0.89 for the first, 0.91 for the second.

Going from B3 to B4, the “KD ratio to GLS3000” value falls from 11.1 to 2.16.

First: B5
Second: B6
The “KD ratio to GLS3000” value of the first is higher: 0.99 for the first, 0.86 for the second.

Compared with B7, B8 is lower in “KD ratio to GLS3000” value: 1.06 for the first, 0.89 for the second.

Source: patent US20210388087A1 (Chugai, published 2021)
